Measured values from patent US6994974B1, “Intracellular amyloid-beta binding (ERAB) polypeptide-related assays” (The trustees of Columbia University in the city of New York, priority 1997, dated 2006).

Tests used:
[1] = system: ERAB polypeptide in neuroblastoma cells; experiment: Cellular distribution of ERAB polypeptide in neuroblastoma cells by immunofluorescence; assay type: cell-based, human; details: peptide added to neuroblastoma cells; amyloid-beta peptide (1–42) 1 μM; FIGS. 4F, 4G
Protocol: FIGS. 4A, 4B, 4C, 4D, 4E, 4F, 4G, 4H, and 4I. Expression of ERAB polypeptide in cultured cells: localization to the endoplasmic reticulum and change in distribution following addition of amyloid-beta peptide. FIG. 4A. Immunoblotting of ERAB polypeptide in human neuroblastoma SK-N-SH (FIG. 4A, lane 1) and HeLa (FIG. 4A, lane 2) cells. Cell extracts (50 μg protein/lane) were subjected to immunoblotting using anti-ERAB polypeptide IgG (3 μg/ml). FIGS. 4B, 4C, and 4D. […] Scale bar=25 μm. FIG. 4E. Subcellular fractionation of ERAB nucleic acid-transfected human neuroblastoma cells. Transfected cells (5×10^8) were pelletted and fractionated in a series of sucrose steps (38%, 30% and 20%) by ultracentrifugation (100,000 for 3 hrs). […] Neuroblastoma cells were incubated in buffer alone or in the presence of amyloid-beta peptide (1–42; 1 μM), and the distribution of ERAB polypeptide was determined by immunofluorescence with anti-ERAB polypeptide IgG. […]
These observations also posed an apparent paradox, for, how could amyloid-beta peptide, most of which is extracellular, interact with a polypeptide associated with endoplasmic reticulum? […] Second, it was determined that ERAB polypeptide became associated with amyloid-beta peptide, and that amyloid-beta peptide-induced effects on ERAB polypeptide were not likely mediated by an indirect mechanism. […]

TrcHis-ERAB polypeptide = target: T1, TrcHis-ERAB polypeptide (Homo sapiens, UniProt Q99714); experiment: Binding of ^125I-amyloid-beta peptide (1–40) to TrcHis-ERAB polypeptide adsorbed to microtiter wells; details: unlabelled competitor at 10 μM; tracer 100 nM; FIG. 2E
T1 construct: made in house; host or cells: E. coli
T1 sequence (Q99714 1-261): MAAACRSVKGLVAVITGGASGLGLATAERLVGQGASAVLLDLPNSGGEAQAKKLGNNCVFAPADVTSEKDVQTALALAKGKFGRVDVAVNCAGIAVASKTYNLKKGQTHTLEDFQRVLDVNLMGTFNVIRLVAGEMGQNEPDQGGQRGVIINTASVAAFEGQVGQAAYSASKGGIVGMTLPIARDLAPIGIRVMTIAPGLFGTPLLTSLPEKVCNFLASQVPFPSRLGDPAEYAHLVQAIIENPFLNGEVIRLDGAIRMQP
Protocol: FIGS. 2A, 2B, 2C, 2D, 2E, 2F, and 2G. […] FIG. 2A. SDS-PAGE (12%; reduced) followed by immunoblotting of TrcHis-ERAB polypeptide (FIG. 2A, lane 1; 2 μg) and TrcHis-chloramphenicol acetyltransferase (CAT; FIG. 2A, lane 2; 2 μg) fusion proteins using anti-ERAB polypeptide IgG (3 μg/ml). […] FIGS. 2B and 2C. […] Binding was analyzed by nonlinear least squares analysis using the method of Klotz and Hunston (60). FIG. 2E. […] FIGS. 2F and 2G. […] 0 indicates wells coated with albumin alone. […] Control TrcHis-CAT construct (Invitrogen) was also used to transform E. coli and the fusion protein was purified as above. Antibody to ERAB polypeptide was prepared by immunizing rabbits with ERAB polypeptide-derived peptides, corresponding to residues 100–116 and 133–147, conjugated to keyhole limpet hemocyanin. […] (for ERAB polypeptide) or overnight at 4° C. […] Unbound radioactivity was removed by washing wells five times with ice cold phosphate-buffered saline containing Tween 20 (0.05%), and bound radioactivity was eluted by incubation with Nonidet P-40 (1%).

Row | Substance | Change in cellular distribution of ERAB polypeptide [1] | Competition for ^125I-amyloid-beta peptide (1–40) binding to TrcHis-ERAB polypeptide (TrcHis-ERAB polypeptide)
1 | amyloid-beta peptide (1–42): exogenous amyloid-beta peptide (1–42) | marked change in the cellular localization | –
2 | amyloid-beta peptide (1–20): synthetic amyloid-beta peptide (1–20) | – | blocked binding
3 | amyloid-beta peptide (25–35): synthetic amyloid-beta peptide (25–35) (GSNKGAIIGLM) | – | had no effect
4 | Arg-Gly-Asp-Ser (RGDS) | – | had no effect
